Test results as given in paper PMC8849274 (Oncotarget, 2022).
Like-named read-outs stand apart in the source and are kept apart here.

How the values were obtained:
Type in all cases: in vivo
[1] = Biodistribution in mice bearing BxPC-3 xenografts; settings: female, athymic nude, mouse, iv, total radioactivity, BxPC-3 tumor-bearing mice, 1 h p.i.
Description: (§1) Animals were supplied by Charles River Laboratories (Wilmington, MA, USA), and were handled in compliance with the Guidelines for Care and Use of Research Animals established by the Division of Comparative Medicine and the Animal Studies Committee of Washington University School of Medicine under protocol #20–0214. Female athymic nude mice were inoculated on the right flank with 10 × 10^6 CaSki or 5 × 10^6 BxPC-3 cells. Tumors were allowed to grow until they approached approximately 100 mm^3 in volume. Radiolabeled peptides were diluted in saline to a dose of 0.37 MBq (10 μCi) per 100 μl. […] For blocking experiments, non-PEGylated peptide (100 μg in 100 μL saline) was injected ten minutes before radiotracer. Blood, lung, liver, spleen, kidney, muscle, heart, bone, and tumor were harvested. The amount of radioactivity in each organ was determined by gamma counting, and the percent injected dose per gram of tissue (% ID/g) was calculated.

[2] = Small animal PET/CT imaging, BxPC-3 tumors; settings: female, mouse, tumor (BxPC-3 xenograft), iv, total radioactivity, athymic nude mice bearing BxPC-3 tumors, 3.7 MBq i.v., without blocking, n = 3, read-out: SUVmax of tumors
Method: BxPC-3 cells (5 × 10^6) were inoculated in the right shoulder of female athymic nude mice 3–4 weeks before PET imaging sessions. All the experiments involving animals followed the Guidelines for Care and Use of Research Animals established by the Division of Comparative Medicine and the Animal Studies Committee of Washington University School of Medicine under protocol #20–0214. […] Mice were imaged with CT followed by static PET scans at 1, 4, and 24 h after tracer administration on an Inveon small animal PET/CT scanner (Siemens Medical Solutions, Malvern, PA, USA). Static images were collected for 20 min and reconstructed with the maximum a posteriori (MAP) reconstruction algorithm using the Inveon Reseach Workstation image display software (Siemens). Regions of interest (ROI) were selected based on co-registered anatomical CT images, and the associated radioactivity was measured using the Inveon software. The maximum standard uptake value (SUV) was calculated as the highest regional radioactivity concentration (nCi/cc) × animal weight (g)/decay-corrected amount of injected dose (nCi).

[3] = Biodistribution in mice bearing CaSki xenografts; settings: female, athymic nude, mouse, iv, total radioactivity; for tissue uptake at 1 h: 1 h p.i.; for tissue uptake at 24 h: 24 h p.i.
Description: as §1

CC(C)C[C@H](NC(=O)[C@H](CC(=O)O)NC(=O)CNC(=O)[C@H](CCCNC(=N)N)NC(=O)[C@H](CC(C)C)NC(=O)[C@H](CC(N)=O)NC(=O)[C@@H]1CCCN1C(=O)[C@@H](NC(=O)[C@H](C)NC(=O)[C@H](CC(N)=O)NC(=O)CCOCCOCCOCCOCCOCCOCCOCCOCCOCCOCCOCCOCCOCCOCCOCCOCCOCCOCCOCCOCCOCCOCCOCCOCCOCCOCCOCCOCCNC(=O)CN1CCN(CC(=O)O)CCN(CC(=O)O)CCN(CC(=O)O)CC1)C(C)C)C(=O)N[C@@H](CCC(N)=O)C(=O)N[C@H](C(=O)N[C@@H](CC(C)C)C(=O)N[C@@H](C)C(=O)N[C@@H](CCC(N)=O)C(=O)N[C@@H](CCCCN)C(=O)N[C@H](C(=O)N[C@@H](C)C(=O)N[C@@H](CCCNC(=N)N)C(=O)N[C@H](C(=O)NCCOCCOCCOCCOCCOCCOCCOCCOCCOCCOCCOCCOCCOCCOCCOCCOCCOCCOCCOCCOCCOCCOCCOCCOCCOCCOCCOCCOCCC(N)=O)[C@@H](C)O)C(C)C)C(C)C [[^64Cu]Cu-DOTA-(PEG28)2-A20FMDV2, metal not drawn]
tissue uptake at 1 h ([1]; blood, 0.37 MBq i.v., gamma counting, mean, n = 4, read-out: Uptake in Blood): 0.28 %ID/g | tissue uptake at 1 h ([1]; blood, non-PEGylated A20FMDV2 100 μg injected 10 min before radiotracer, read-out: Uptake in Blood, 1 h Block): 0.24 %ID/g | tissue uptake at 1 h ([1]; bone, 0.37 MBq i.v., gamma counting, mean, n = 4, read-out: Uptake in Bone): 0.25 %ID/g | tissue uptake at 1 h ([1]; bone, non-PEGylated A20FMDV2 100 μg injected 10 min before radiotracer, read-out: Uptake in Bone, 1 h Block): 0.28 %ID/g | tissue uptake at 1 h ([1]; heart, 0.37 MBq i.v., gamma counting, mean, n = 4, read-out: Uptake in Heart): 1.01 %ID/g | tissue uptake at 1 h ([1]; heart, non-PEGylated A20FMDV2 100 μg injected 10 min before radiotracer, read-out: Uptake in Heart, 1 h Block): 0.34 %ID/g | tissue uptake at 1 h ([1]; 0.37 MBq i.v., gamma counting, mean, n = 4, read-out: Tumor Uptake): 2.12 ± 0.83 %ID/g | tissue uptake at 1 h ([1]; kidney, 0.37 MBq i.v., gamma counting, mean, n = 4, read-out: Uptake in Kidney): 38 %ID/g | tissue uptake at 1 h ([1]; kidney, non-PEGylated A20FMDV2 100 μg injected 10 min before radiotracer, read-out: Uptake in Kidney, 1 h Block): 27.6 %ID/g | tissue uptake at 1 h ([1]; liver, 0.37 MBq i.v., gamma counting, mean, n = 4, read-out: Uptake in Liver): 2.79 %ID/g | tissue uptake at 1 h ([1]; liver, non-PEGylated A20FMDV2 100 μg injected 10 min before radiotracer, read-out: Uptake in Liver, 1 h Block): 2.59 %ID/g | tissue uptake at 1 h ([1]; lung, 0.37 MBq i.v., gamma counting, mean, n = 4, read-out: Uptake in Lung): 1.73 %ID/g | tissue uptake at 1 h ([1]; lung, non-PEGylated A20FMDV2 100 μg injected 10 min before radiotracer, read-out: Uptake in Lung, 1 h Block): 1.14 %ID/g | tissue uptake at 1 h ([1]; muscle, 0.37 MBq i.v., gamma counting, mean, n = 4, read-out: Uptake in Muscle): 0.62 %ID/g | tissue uptake at 1 h ([1]; muscle, non-PEGylated A20FMDV2 100 μg injected 10 min before radiotracer, read-out: Uptake in Muscle, 1 h Block): 0.18 %ID/g | tissue uptake at 1 h ([1]; spleen, 0.37 MBq i.v., gamma counting, mean, n = 4, read-out: Uptake in Spleen): 0.3 %ID/g | tissue uptake at 1 h ([1]; spleen, non-PEGylated A20FMDV2 100 μg injected 10 min before radiotracer, read-out: Uptake in Spleen, 1 h Block): 0.34 %ID/g | tissue uptake at 1 h ([1]; tumor (BxPC-3 xenograft), non-PEGylated A20FMDV2 100 μg injected 10 min before radiotracer, read-out: Tumor uptake, 1 h Block): 0.71 ± 0.16 %ID/g | SUV at 1 h ([2]; PET at 1 h): 0.44 ± 0.02 SUV | SUV at 4 h ([2]; PET at 4 h): 0.57 ± 0.15 SUV | SUV at 24 h ([2]; PET at 24 h): 0.69 ± 0.09 SUV | tissue uptake at 1 h ([3]; blood, CaSki tumor-bearing mice, 0.37 MBq i.v., gamma counting, mean, n = 4, read-out: Uptake in Blood): 0.22 %ID/g | tissue uptake at 24 h ([3]; blood, CaSki tumor-bearing mice, 0.37 MBq i.v., read-out: Radioactivity remaining in the blood): 0.26 ± 0.07 %ID/g | tissue uptake at 1 h ([3]; blood, CaSki tumor-bearing mice, non-PEGylated A20FMDV2 100 μg injected 10 min before radiotracer, read-out: Uptake in Blood, 1 h Block): 0.13 %ID/g | tissue uptake at 1 h ([3]; bone, CaSki tumor-bearing mice, 0.37 MBq i.v., gamma counting, mean, n = 4, read-out: Uptake in Bone): 0.62 %ID/g | tissue uptake at 1 h ([3]; bone, CaSki tumor-bearing mice, non-PEGylated A20FMDV2 100 μg injected 10 min before radiotracer, read-out: Uptake in Bone, 1 h Block): 0.27 %ID/g | tissue uptake at 1 h ([3]; heart, CaSki tumor-bearing mice, 0.37 MBq i.v., gamma counting, mean, n = 4, read-out: Uptake in Heart): 0.71 %ID/g | tissue uptake at 1 h ([3]; heart, CaSki tumor-bearing mice, non-PEGylated A20FMDV2 100 μg injected 10 min before radiotracer, read-out: Uptake in Heart, 1 h Block): 0.58 %ID/g | tissue uptake at 1 h ([3]; kidney, CaSki tumor-bearing mice, 0.37 MBq i.v., gamma counting, mean, n = 4, read-out: Uptake in Kidney): 42.7 ± 4.03 %ID/g | tissue uptake at 4 h ([3]; kidney, CaSki tumor-bearing mice, 0.37 MBq i.v., 4 h p.i.): 37 ± 10.6 %ID/g | tissue uptake at 24 h ([3]; kidney, CaSki tumor-bearing mice, 0.37 MBq i.v., read-out: Uptake in Kidney): 21 ± 4.67 %ID/g | tissue uptake at 1 h ([3]; kidney, CaSki tumor-bearing mice, non-PEGylated A20FMDV2 100 μg injected 10 min before radiotracer, read-out: Uptake in Kidney, 1 h Block): 35.5 %ID/g | tissue uptake at 1 h ([3]; liver, CaSki tumor-bearing mice, 0.37 MBq i.v., gamma counting, mean, n = 4, read-out: Uptake in Liver): 1.04 %ID/g | tissue uptake at 1 h ([3]; liver, CaSki tumor-bearing mice, non-PEGylated A20FMDV2 100 μg injected 10 min before radiotracer, read-out: Uptake in Liver, 1 h Block): 0.94 %ID/g | tissue uptake at 1 h ([3]; lung, CaSki tumor-bearing mice, 0.37 MBq i.v., gamma counting, mean, n = 4, read-out: Uptake in Lung): 1.37 %ID/g | tissue uptake at 1 h ([3]; lung, CaSki tumor-bearing mice, non-PEGylated A20FMDV2 100 μg injected 10 min before radiotracer, read-out: Uptake in Lung, 1 h Block): 1.19 %ID/g | tissue uptake at 1 h ([3]; muscle, CaSki tumor-bearing mice, 0.37 MBq i.v., gamma counting, mean, n = 4, read-out: Uptake in Muscle): 0.73 %ID/g | tissue uptake at 1 h ([3]; muscle, CaSki tumor-bearing mice, non-PEGylated A20FMDV2 100 μg injected 10 min before radiotracer, read-out: Uptake in Muscle, 1 h Block): 0.51 %ID/g | tissue uptake at 1 h ([3]; spleen, CaSki tumor-bearing mice, 0.37 MBq i.v., gamma counting, mean, n = 4, read-out: Uptake in Spleen): 0.17 %ID/g | tissue uptake at 1 h ([3]; spleen, CaSki tumor-bearing mice, non-PEGylated A20FMDV2 100 μg injected 10 min before radiotracer, read-out: Uptake in Spleen, 1 h Block): 0.13 %ID/g | tissue uptake at 1 h ([3]; tumor (CaSki xenograft), 0.37 MBq i.v., gamma counting, mean, n = 4, read-out: Tumor Uptake): 0.95 ± 0.29 %ID/g | tissue uptake at 1 h ([3]; tumor (CaSki xenograft), non-PEGylated A20FMDV2 100 μg injected 10 min before radiotracer, read-out: Tumor uptake, 1 h Block): 0.65 ± 0.17 %ID/g
